For this test, the target named is human cannabinoid receptor type 2 (CB2) (human) (UniProt P34972).
Chain of UniProt P34972 (P34972 whole entry): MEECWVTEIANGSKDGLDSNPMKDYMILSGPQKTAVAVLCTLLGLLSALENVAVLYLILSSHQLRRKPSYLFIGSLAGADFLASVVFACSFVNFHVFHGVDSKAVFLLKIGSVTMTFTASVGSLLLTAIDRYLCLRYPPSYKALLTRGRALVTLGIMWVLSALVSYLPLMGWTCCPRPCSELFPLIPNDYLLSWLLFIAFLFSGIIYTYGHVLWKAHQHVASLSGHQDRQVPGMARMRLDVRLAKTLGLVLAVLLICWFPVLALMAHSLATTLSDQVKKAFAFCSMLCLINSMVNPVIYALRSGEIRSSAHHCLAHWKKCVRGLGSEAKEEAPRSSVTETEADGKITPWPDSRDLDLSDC

“osteogenic growth peptide (OGP), the 5-amino-acid cellular activator derived from OGP(1-14) (from UniProt P62805 99-103)” returned a logEC50 of half-maximal inhibition of FSK-stimulated cAMP in CHO-hCB2 cells (bell-shaped dose-response curve, two independent experiments) of -12.1.
